Literature values, collected in publication PMC8797470, “Disruption of the pentraxin 3/CD44 interaction as an efficient therapy for triple‐negative breast cancers” (Clinical and Translational Medicine, 2022).

Molecular target: PTX3 (Homo sapiens) (UniProt P26022)
Sequence (P26022 18-381): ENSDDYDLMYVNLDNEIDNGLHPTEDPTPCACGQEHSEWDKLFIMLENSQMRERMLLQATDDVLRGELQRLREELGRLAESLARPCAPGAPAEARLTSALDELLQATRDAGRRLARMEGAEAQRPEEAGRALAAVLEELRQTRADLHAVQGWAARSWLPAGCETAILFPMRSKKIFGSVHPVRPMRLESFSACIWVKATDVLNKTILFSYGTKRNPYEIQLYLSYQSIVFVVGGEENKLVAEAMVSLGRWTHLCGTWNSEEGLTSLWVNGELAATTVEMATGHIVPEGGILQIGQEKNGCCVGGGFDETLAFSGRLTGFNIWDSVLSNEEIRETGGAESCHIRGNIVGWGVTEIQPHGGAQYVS

Chain of TSG-6 link module (P98066 36-129): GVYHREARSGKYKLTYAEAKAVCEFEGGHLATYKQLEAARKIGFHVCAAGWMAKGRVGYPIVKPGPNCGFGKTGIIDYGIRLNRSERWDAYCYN

Kd: 481 nM
Substance: TSG-6 link module (from UniProt P98066)
